Biological target: T1, SecYEG translocon embedded in phospholipid-containing nanodiscs (Escherichia coli, UniProt P0AGA2 1-443; P0AG96 1-127; P0AG99 1-110)
T1 construct: SecY, Escherichia coli; SecE, Escherichia coli; SecG, Escherichia coli; membrane scaffold protein MSP1D1, the belt of the nanodisc; the disc holds E. coli total lipids; also called non-mutated SecYEG; copies: 1 + 1 + 1 + 2
Test: not stated; proOmpA75-RNC with SecYEG in nanodiscs (Supplementary Fig. S4b)
Conditions: both partners purified

- Kd: 15 ± 3 nM
B1: proOmpA75-RNC: ribosome-nascent-chain complex carrying the nascent chain of outer-membrane protein A (complex)
chain: MKKTAIAIAVALAGFATVAQAAPKDNTWYTGAKLGWSQYHDTGFINNNGPTHENQLGAGAFGGYQVNPYVGFEMG

— publication PMC6028451, “Cotranslational protein targeting to the membrane: Nascent-chain transfer in a quaternary complex formed at the translocon” (Scientific Reports, 2018)
